From patent US20220411487A1 (Regeneron, published 2022)

T1: full length human TMPRSS6 on HEK293 cells (HEK293/hTMPRSS6) (human, UniProt Q8IU80 10-811)
T1 sequence (looked up): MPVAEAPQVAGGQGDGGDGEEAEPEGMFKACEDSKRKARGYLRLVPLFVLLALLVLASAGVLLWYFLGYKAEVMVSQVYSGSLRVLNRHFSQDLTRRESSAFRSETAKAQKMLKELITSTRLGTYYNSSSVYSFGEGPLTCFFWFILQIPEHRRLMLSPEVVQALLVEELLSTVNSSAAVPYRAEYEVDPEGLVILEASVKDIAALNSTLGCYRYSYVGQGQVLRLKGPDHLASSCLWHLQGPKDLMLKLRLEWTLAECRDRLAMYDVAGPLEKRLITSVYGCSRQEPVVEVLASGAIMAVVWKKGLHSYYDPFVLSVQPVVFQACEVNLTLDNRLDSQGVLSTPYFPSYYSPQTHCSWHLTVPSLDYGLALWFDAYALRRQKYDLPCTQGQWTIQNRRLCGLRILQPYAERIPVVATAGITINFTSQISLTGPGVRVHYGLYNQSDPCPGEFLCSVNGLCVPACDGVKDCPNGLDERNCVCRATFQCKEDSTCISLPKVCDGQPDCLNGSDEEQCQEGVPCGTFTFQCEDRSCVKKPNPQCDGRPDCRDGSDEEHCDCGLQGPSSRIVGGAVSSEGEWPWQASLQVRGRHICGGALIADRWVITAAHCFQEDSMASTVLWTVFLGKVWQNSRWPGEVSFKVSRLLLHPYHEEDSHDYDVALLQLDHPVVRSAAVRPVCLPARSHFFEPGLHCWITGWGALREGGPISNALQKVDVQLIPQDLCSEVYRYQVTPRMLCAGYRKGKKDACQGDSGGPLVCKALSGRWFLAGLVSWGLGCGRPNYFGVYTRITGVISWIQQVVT

T2: full length cynomolgous monkey TMPRSS6 on HEK293 cells (HEK293/mfTMPRSS6) (cynomolgous monkey/Macaca fascicularis, UniProt Q8IU80 10-811 (human entry))
T2 chain: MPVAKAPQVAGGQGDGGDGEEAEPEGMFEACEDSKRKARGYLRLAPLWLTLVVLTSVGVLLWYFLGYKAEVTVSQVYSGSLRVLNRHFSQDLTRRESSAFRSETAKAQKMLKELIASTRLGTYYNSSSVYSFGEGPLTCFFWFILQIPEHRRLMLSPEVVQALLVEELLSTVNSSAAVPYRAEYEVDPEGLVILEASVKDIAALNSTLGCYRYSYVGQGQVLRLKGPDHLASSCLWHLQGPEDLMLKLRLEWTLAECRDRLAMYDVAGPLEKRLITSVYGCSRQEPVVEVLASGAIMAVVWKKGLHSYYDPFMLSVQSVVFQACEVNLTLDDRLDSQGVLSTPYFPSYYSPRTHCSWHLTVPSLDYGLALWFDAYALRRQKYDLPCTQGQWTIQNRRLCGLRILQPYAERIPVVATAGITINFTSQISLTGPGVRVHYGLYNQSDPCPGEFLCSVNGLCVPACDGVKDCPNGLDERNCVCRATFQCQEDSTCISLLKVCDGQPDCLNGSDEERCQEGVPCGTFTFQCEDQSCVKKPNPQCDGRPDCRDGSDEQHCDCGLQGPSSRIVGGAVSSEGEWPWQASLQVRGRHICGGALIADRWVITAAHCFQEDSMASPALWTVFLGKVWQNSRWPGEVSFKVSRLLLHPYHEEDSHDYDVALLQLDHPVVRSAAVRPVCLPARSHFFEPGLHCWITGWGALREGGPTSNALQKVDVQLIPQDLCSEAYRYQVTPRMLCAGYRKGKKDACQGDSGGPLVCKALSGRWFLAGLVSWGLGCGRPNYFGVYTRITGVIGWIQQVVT


Columns and labels:
[1] = molecular target: T1, full length human TMPRSS6 on HEK293 …; test: cell-based or functional assay
[2] = molecular target: T2, full length cynomolgous monkey TMPRSS6 …; test: cell-based or functional assay
hTMPRSS6_S762A-MMH = molecular target: T3, hTMPRSS6_S762A-MMH (human, UniProt Q8IU80 77-811); test: SPR, mAb captured via anti-hFc, 25 C
T3 construct: also called REGN5330; human TMPRSS6_S762A-MMH
Description: The equilibrium dissociation constant (KD) for TMPRSS6 binding to different TMPRSS6 monoclonal antibodies (mAbs) was determined using a real-time surface plasmon resonance biosensor using a Biacore 4000 instrument. All binding studies were performed in 10 mM HEPES, 150 mM NaCl, 3 mM EDTA, and 0.05% v/v Surfactant Tween-20, pH 7.4 (HBS-ET) running buffer at 25° C. and 37° C. The Biacore CM5 sensor chip surface was first derivatized by amine coupling with a human Fc specific mouse mAb to capture different TMPRSS6 mAbs. […] Different concentrations (100 nM to 3.7 nM, 3-fold serial dilution) of the TMPRSS6 reagent proteins prepared in HBS-EP running buffer were injected over the TMPRSS6 mAb captured surface for 150 seconds at a flow rate of 30 μL/min and their dissociation in HBS-ET running buffer was monitored for 10 minutes. At the end of each cycle, the TMPRSS6 mAb captured surface was regenerated using a 12 second injection of 20 mM phosphoric acid.
The association rate (kₐ) and dissociation rate (kd) were determined by fitting the real-time binding sensorgrams to a 1:1 binding model with mass transport limitation using Scrubber 2.0 (BioLogic Software) curve-fitting software. Binding dissociation equilibrium constant (KD) and dissociative half-life (t½) were calculated from the kinetic rates as: […]

% inhibition, HEK293 bioassay, 30 min pre-incubation 25 C [1] [%] | IC50, HEK293 bioassay, 30 min pre-incubation 25 C [1] [nM] | % inhibition, HEK293 bioassay, 30 min pre-incubation 25 C [2] [%] | IC50, HEK293 bioassay, 30 min pre-incubation 25 C [2] [nM] | 100 nM Ag Bound (hTMPRSS6_S762A-MMH) [RU] | Kd (hTMPRSS6_S762A-MMH) [nM] | koff (hTMPRSS6_S762A-MMH) [s⁻¹] | kon (hTMPRSS6_S762A-MMH) [M⁻¹ s⁻¹] | t½ (hTMPRSS6_S762A-MMH) [h] | Binder
87 | 1.9 | 87 | 8.8 | 89 | 0.45 | 0.000182 | 404000 | 1.07 | REGN7969 (antibody, human IgG4 S228P, kappa, V domains shown, fully human; human IgG4 Fc with hinge S108P; also called mAb37746) VH: QVQLVESGGGVVQPGRSLRLSCAASGFTFNNYGMHWVRQAPGKGLEWVAIISYDGSNEYYSDSVKGRFTISRDNSKNTLYLQMNSLRAEDTAVYYCARDQDYGGNLFHYWGQGTLVTVSS VL: not shown
86 | 0.97 | 87 | 3.1 | 103 | 0.322 | 0.000147 | 455000 | 1.32 | REGN7971 (antibody, human IgG4 S228P, kappa, V domains shown, fully human; human IgG4 Fc with hinge S108P; also called mAb37763) VH: QVQLVESGGGVVQPGRSLRLSCAASGFTFSTYGMHWVRQAPGKGLEWVAIISYDGSNDYYLDSVKGRFTISRDNSKNTLYLQMNNLRAEDTAVYYCAKDQGYGGNLFASWGQGTLVTVSS VL: not shown
86 | 3.6 | 87 | 8.1 | 159 | 1.69 | 0.000368 | 218000 | 0.517 | REGN7977 (antibody, V domains shown, fully human; human IgG4 Fc with hinge S108P; also called mAb41465) VH: EVQLVESGGGLVKPGGSLRVSCAASGVTFSNVWMSWVRQVPGKGLEWVGRIKSKTDGGTTDYAAPVKGRFTISKDDSKNTLFLQMNSLKTEDTAVYYCTTETGDFWSGYYPRFQHWGQGTLVTVSS VL: DIQMTQSPSSLSASVGDRVTITCRASQYISTYLNWYQQKPGKAPSLLIYAASSLQSGVPSRFSGSGSGTDFTLTISSLQPEDFASYSCQQSYSTPPYTFGQGTKLEIKR
90 | 0.36 | 94 | 0.66 | 205 | 0.128 | 8.6e-05 | 671000 | 2.23 | REGN8023 (antibody, human IgG4 S228P, kappa, V domains shown, fully human; human IgG4 Fc with hinge S108P; also called mAb37699) VH: EVQLVESGGGLVKPGGSLRISCAASGFIFVDYAMHWVRQAPGKGLEWVSGISWNSGSIGYADSVKGRFTISRDNAKKSLYLQMSGLRPEDTALYYCVKSGFYYVRSYFDNWGQGTLVTVSS VL: DIVMTQSPLSLPVTPGEPASISCRSSQSLLDSDDGNTYLDWYLRKPGQSPQLLIYTLSYRASGVPDRFSGSGSGTDFTLKISRVEADDVGVYYCMQRIEFPLTFGGGTKVEIKR
86 | 3 | 90 | 6.5 | 176 | 0.243 | 6.49e-05 | 267000 | 2.97 | REGN7999 (antibody, human IgG4 S228P, kappa, V domains shown, fully human; human IgG4 Fc with hinge S108P; also called mAb41450) VH: EVQLVESGGGLVQPGGSLRLSCAASGFTFSSYAMTWVRQAPGKGLEWVSAISGSDTSTYYADSVKGRFTISRDNSKNTLFLQMNSLRAEDTAVYYCAKHQDYDFSYYYSAMDVWGQGTTVTVSS VL: DIQMTQSPSSLSASVGDRVIITCRASQDFNSWLAWYQQKPGKAPKLLIYAASSLQSGVPSRFSGSGSGTDFTLTISSLQPEDFATYYCQQTDSFPFTFGPGTKVDIKR
86 | 5.1 | 81 | 30 | 191 | 2.63 | 0.00068 | 259000 | 0.283 | REGN7974 (antibody, human IgG4 S228P, kappa, V domains shown, fully human; human IgG4 Fc with hinge S108P; also called mAb41422) VH: EVQLVESGGGLVQPGRSLRLSCIASGFNFGDYGMSWVRQAPGKGLEWVGFIRSKAYGGTTEYAASVKGRFTISRDDSKSIAYLQMNSLKTEDAAMYYCSRDYYDILTGYYGDYWGQGTLVTVSS VL: not shown
